This passage reports protein production results from a protein production outcome set (Wang et al. 2014).

This series can be described thus: label from the status in PepcDB records.
For the sequence “MPPNTSFRLAALAVTVSGLLFSSSTLMAAETAETADLVLRNGNIYTVNQGQPWAEAVAVRDGRYVFIGSNAQAAEFIGPKTQVVDLNGSMAMPGINDVHAHPLDGGYEDIYSCNFSQKSSLDDILSQVSECAQKAGPGEWVIGSAWGSPRMAELSTTEALAKLDKVSNGRPVILRDDSYHNRWINSEAMRLAAITAQSVSPAGGVIVKDAKTGEPTGLLQEFPAFQHVQSLVPVRTEEQRLTSGRGATKTMVSLGITGVQEAVSSEVNLRIWSKIDRAEGLPLRIIGSIVSTPLLDEGAAGLELVARRDVYRTTNFFPDRFKFVLDGVPPAHTAKLIEPYLPTQAHGDHYHGDTHYTTEQVVEILSKLDKQGISTKLHAAGDGSLRLALDAVEQVRKINGPNGPMHQIAHTHLISPQDMPRFAQLRVAADLSPMLWFPSDMTNASVVTIGEERMKDFVPTVKLLRSGAVVAGGSDWPAGGPTPSPWIGIEGLVTRQNPLGDAPGTLAPEEAVDLPEAIRIYTINSAKAMGIEKETGSVELGKSADLIVLDRHLFNVPIKQVHRANVVKTYFKGQLVHSAPEKS”, the protein production entry was “failed”.
In the case of “SGFRKMAFPSGKVEGCMVQVTCGTTTLNGLWLDDTVYCPRHVICTAEDMLNPNYEDLLIRKSNHSFLVQAGNVQLRVIGHSMQNCLLRLKVDTSNPKTPKYKFVRIQPGQTFSVLACYNGSPSGVYQCAMRPNHTIKGSFLNGSCGSVGFNIDYDCVSFCYMHHMELPTGVHAGTDLEGKFYGPFVDRQTAQAAGTDTTITLNVLAWLYAAVINGDRWFLNRFTTTLNDFNLVAMKYNYEPLTQDHVDILGPLSAQTGIAVLDMCAALKELLQNGMNGRTILGSTILEDEFTPFDVVRQCSGVTFQ” it was “not failed”.
For “MAVRQVTVGYSDGTHKTMPVRCDQTVLDAAEEHGVAIVNECQSGICGTCVATCTAGRYQMGRTEGLSDVERAARKILTCQTFVTSDCRIELQYPVDDNAALLVTGDGVVTAVELVSPSTAILRVDTSGMAGALRYRAGQFAQLQVPGTNVWRNYSYAHPADGRGECEFIIRLLPDGVMSNYLRDRAQPGDHIALRCSKGSFYLRPIVRPVILVAGGTGLSAILAMAQSLDADVAHPVYLLYGVERTEDLCKLDELTELRRRVGRLEVHVVVARPDPDWDGRTGLVTDLLDERMLASGDADVYLCGPVAMVDAARTWLDHNGFHRVGLYYEKFVASGAARRRTPARLDYAGVDIAEVCRRGRGTAVVIGGSIAGIAAAKMLSETFDRVIVLEKDGPHRRREGRPGAAQGWHLHHLLTAGQIELERIFPGIVDDMVREGAFKVDMAAQYRIRLGGTWKKPGTSDIEIVCAGRPLLEWCVRRRLDDEPRIDFRYESEVADLAFDRANNAIVGVAVDNGDADGGDGLQVVPAEFVVDASGKNTRVPEFLERLGVGAPEAEQDIINCFYSTMQHRVPPERRWQDKVMVICYAYRPFEDTYAAQYYTDSSRTILSTSLVAYNCYSPPRTAREFRAFADLMPSPVIGENIDGLEPASPIYNFRYPNMLRLRYEKKRNLPRALLAVGDAYTSADPVSGLGMSLALKEVREMQALLAKYGAGHRDLPRRYYRAIAKMADTAWFVIREQNLRFDWMKDVDKKRPFYFGVLTWYMDRVLELVHDDLDAYREFLAVVHLVKPPSALMRPRIASRVLGKWARTRLSGQKTLIARNYENHPIPAEPADQLVNA”, the protein production result is given as “failed”.
To “MDALEIFKTLFSLVMRFSSYLPSNEEISDMKTTELYAFLYVALFGPKKMKEIAEFLSTTKSNVTNVVDSLEKRGLVVREMDPVDRRTYRVVLTEKGKEIFGEILSNFESLLKSVLEKFSEEDFKVVSEGFNRMVEALSREGR” belongs “not failed”; to “MDKLDAMQVYVAVVDAHSFARAAEVLGQPRSTVSRVVKELEAWLGAQLLQRTTRKLSVTAEGRRYYEECKRLLAEMAAMEASFPGRSAQPAGRFKVGMPQSLARHCILPRIGEFLQQYPDLELILCSSDNVEDIIQEGFDCVIRTGRIEDSTTLVARPLARYRWMVLASPAWLAAHGRPQSIDELHQHRAVGYLNHRTGRTIDWLFSLDEGDCAIRMRETLVVDDTDAYIQAGIQGLGLIRVASYLAQPYLQSGALVACLEQAASDLPLSLVYPQNRYLPPAVRAFYDWSRRVLQPPHSEA”, “failed”; to “MAGRRRWSTEQILDAAAELLLAGDAETFSVRKLAASLGTDSSSLYRHFRNKTELLRAVADRILLSAMDGYRPEGDWKQRLTAVALRLRESFGQQPQLAAVWGRHGSGGTGSRLMMEEVLQALRASGLPDDEIPARYHRLVILISSLITAEGGFGAVGAQEHEQGMEQFRVAVLGADPERFPALSHFAREIRPLGADRGAAFEEILAAHLAHLEAAAP”, “not failed”.
Turning to “MNGYRRKNMRLINTTSSHQHLVKNQLKHTDATLVETYSAGNTDVIFTQAPKHYELLISNKHRAIKDNEIETIREFFLKRKINKNIILLDQLKTLHTANLIEISIPIAD”, the protein production entry was “failed”.
